For this assay, the target named is RNAP β′ subunit with 6his (rpoC-6his), in purified RNAP (B. subtilis (strain BS200), UniProt P37871 1-1199). Description: cross-linking.
Sequence of RNAP β′ subunit with 6his (rpoC-6his), in purified RNAP (P37871 whole entry): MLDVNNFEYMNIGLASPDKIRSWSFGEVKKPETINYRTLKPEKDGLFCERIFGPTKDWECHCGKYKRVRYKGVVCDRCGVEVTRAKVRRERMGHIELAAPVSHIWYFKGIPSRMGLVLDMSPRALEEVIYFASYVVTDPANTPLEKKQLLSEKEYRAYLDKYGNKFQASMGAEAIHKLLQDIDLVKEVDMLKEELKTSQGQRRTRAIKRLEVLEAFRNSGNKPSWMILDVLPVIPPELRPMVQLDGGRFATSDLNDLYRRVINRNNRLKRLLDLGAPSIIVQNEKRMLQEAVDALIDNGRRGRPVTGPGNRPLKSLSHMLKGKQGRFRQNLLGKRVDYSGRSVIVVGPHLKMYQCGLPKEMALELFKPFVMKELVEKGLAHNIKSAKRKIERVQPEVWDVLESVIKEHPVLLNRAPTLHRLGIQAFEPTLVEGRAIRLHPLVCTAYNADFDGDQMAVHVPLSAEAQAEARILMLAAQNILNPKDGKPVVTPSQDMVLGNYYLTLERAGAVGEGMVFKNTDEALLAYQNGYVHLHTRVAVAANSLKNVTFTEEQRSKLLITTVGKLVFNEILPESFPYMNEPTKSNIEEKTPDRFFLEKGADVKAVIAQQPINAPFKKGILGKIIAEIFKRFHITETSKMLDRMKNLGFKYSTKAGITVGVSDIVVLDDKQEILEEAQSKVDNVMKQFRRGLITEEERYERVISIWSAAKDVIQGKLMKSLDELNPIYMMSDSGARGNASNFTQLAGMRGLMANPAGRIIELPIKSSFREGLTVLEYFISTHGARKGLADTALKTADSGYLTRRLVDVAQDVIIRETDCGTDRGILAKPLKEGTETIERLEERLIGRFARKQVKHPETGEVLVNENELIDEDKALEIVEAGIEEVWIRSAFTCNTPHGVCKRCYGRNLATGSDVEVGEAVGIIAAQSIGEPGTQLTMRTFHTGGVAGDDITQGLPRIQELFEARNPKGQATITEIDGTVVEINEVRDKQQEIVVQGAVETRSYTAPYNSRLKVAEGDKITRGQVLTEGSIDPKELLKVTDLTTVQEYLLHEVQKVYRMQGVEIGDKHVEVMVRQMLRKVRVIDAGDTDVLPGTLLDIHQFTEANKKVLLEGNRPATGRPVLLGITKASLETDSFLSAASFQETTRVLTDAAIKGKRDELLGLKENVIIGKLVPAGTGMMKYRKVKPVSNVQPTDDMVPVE

B1: δ subunit (RpoE) of RNAP (natural protein)
chain: MGIKQYSQEELKEMALVEIAHELFEEHKKPVPFQELLNEIASLLGVKKEELGDRIAQFYTDLNIDGRFLALSDQTWGLRSWYPYDQLDEETQPTVKAKKKKAKKAVEEDLDLDEFEEIDEDDLDLDEVEEELDLEADDFDEEDLDEDDDDLEIEEDIIDEDDEDYDDEEEEIK
As for B1, the binding result was “binds”.
